For six molecules, binding result and IC50 results are on record in patent publication US20040259798A1 (KARYON CTT, published 2004).

Bridge positions count the residues as written; N and C are the ends. Ends that are not written are not given here.

Assay [1] addresses αMβ2 integrin (Mac-1) (UniProt P11215 17-1152; P05107 23-769). As to the kind of experiment: phage display biopanning on coated αMβ2 integrin. The procedure: The αMβ₂ integrin was purified by antibody affinity chromatography from buffy coats obtained from Finnish Red Cross Blood Transfusion Service as described previously (Li et al., 1995). Integrin diluted in Tris-buffered saline (TBS)/1 mM MnCl₂ was coated onto microtiter wells overnight at 4° C. using […] per well in the first biopanning and 100, 10 and 1 ng in subsequent pannings. The wells were blocked with 5% BSA in TBS for 1 h at 22° C. and then washed five times with TBS. Biopanning was performed using CX₇C and CX₉GC phage peptide libraries essentially as described (Koivunen et al., 1994). The construction of libraries was modified so that the single-stranded DNA encoding degenerate sequences was converted into a double-stranded form using 5 cycles of PCR with only the reverse primer and then 11 cycles with both the reverse and forward primer. A total of 6 μg of the double-stranded oligonucleotide was purified using QIAGEN PCR purification kit and ligated with 42 μg of the Fuse5 phage vector. The number of recombinants in the libraries was more than 10⁹. Phage binding, elution and subsequent amplification in E. coli were repeated five times, and after each panning bacterial colonies were picked up and stored in a 10 μl volume of TBS in microtiter wells at −20° C. For direct colony sequencing, […] aliquots of the thawed samples were subjected to PCR with 10 pmol each of the forward primer 5′ […] 3′ and the reverse primer 5′[…] 3′. The PCR conditions were 92° C. for 30 s, 60° C. for 30 s, and 72° C. for 60 s, and the cycle number was 35. One μl aliquot of the PCR reaction was taken for sequencing using 15 pmol of either one of the primers and analyzed on an ABI 310 apparatus (PE Applied Biosystems, Foster City, Calif.).
After the fifh round of selection, the CX₇C library gave a 600-fold enrichment and CX₉GC a 1000-fold enrichment of phage bound to the integrin in comparison to background. […] Four of them contained the LLG tripeptide motif.

Assay [2] addresses T1, αLβ2 integrin on Jurkat cells (UniProt P20701 26-1170; P05107 23-769, limits assumed).
T1 construct: whole, on cells
As to the kind of experiment: inhibition of αLβ2-mediated Jurkat cell adhesion to ICAM-1-Fc (coated directly or captured via protein A), Crystal Violet staining.

B1: phage displaying CWHKDLLGC (peptide)
peptide: CWHKDLLGC
In the case of B1, the binding result in assay [1] is “binds”.

B2: phage displaying CPCFLLGCC (LLG-C4) (peptide)
peptide: CPCFLLGCC
Consider B2, for which the binding result in assay [1] is on record as “binds”.

B3: C(1-8;3-9) peptide (peptide)
peptide: CPCFLLGCC
modifications: disulfide 1-8, 3-9
notes: also called LLG-C4 peptide; LLG-C4 nonapeptide
Take B3: the IC50 (commonly the concentration that gives 50% inhibition) in assay [2] is around 80 µM.

B4: phage displaying CPPDLFWYC (peptide)
peptide: CPPDLFWYC
B4: the binding result in assay [1] is on record as “binds”.

B5: phage displaying CWSMELLGC (peptide)
peptide: CWSMELLGC
On to B5, for which, in assay [1], the binding result is “binds”.

B6: phage displaying CWKLLGSEEEC (peptide)
peptide: CWKLLGSEEEC
In the case of B6, the binding result in assay [1] is reported as “binds”.
